Key:
[1] = target: Dec E73R with a C-terminal histidine tag (phage L); test: native gel or EMSA; native gel of purified Dec variants in solution
[2] = target: Dec K30D with a C-terminal histidine tag (phage L); test: as above
[3] = target: Dec Y31A with a C-terminal histidine tag (phage L); test: as above
[4] = target: Dec Y49E with a C-terminal histidine tag (phage L); test: as above
[5] = target: Dec Y71A with a C-terminal histidine tag (phage L); test: as above
[6] = target: phage L decoration protein Dec, capsid-bound trimer in native phage L virions (phage L); test: cryo-EM structure; native phage L virions, vitrified; icosahedral reconstruction, 4.2 Å; NMR OB-fold of Dec and a coat homology model fitted into the map
[7] = target: phage P22 coat protein E81R:E323R, in P22 phage particles (phage P22) (UniProt P26747); test: co-sedimentation; purified Dec added to purified P22 phages with WT or variant coat protein; free Dec separated by cesium chloride density gradient sedimentation; phage bands TCA-precipitated, SDS-PAGE, Coomassie bands of coat and Dec quantitated and normalized to the ratio in native P22 particles bound with Dec

Dec E73R with a C-terminal histidine tag (natural protein)
stoichiometry N [1]: 3

Dec K30D with a C-terminal histidine tag (natural protein)
stoichiometry N [2]: 3

Dec Y31A with a C-terminal histidine tag (natural protein)
stoichiometry N [3]: 3

Dec Y49E with a C-terminal histidine tag (natural protein)
stoichiometry N [4]: 3

Dec Y71A with a C-terminal histidine tag (natural protein)
stoichiometry N [5]: 3

phage L decoration protein Dec, capsid-bound trimer in native phage L virions (natural protein)
stoichiometry N [6]: 3

recombinant wild type Dec with a C-terminal histidine tag (natural protein)
Dec binding, normalized to WT (%) [7]: < 20%

From paper PMC6449081
